Assay results published in PMC7041794, “Investigating the ferric ion binding site of magnetite biomineralisation protein Mms6” (PLoS ONE, 2020).

B1: SUMO-Mms6 (natural protein, Magnetospirillum magneticum AMB-1)
chain: GGTIWTGKGLGLGLGLGLGAWGPIILGVVGAGAVYAYMKSRDIESAQSDEEVELRDALA
notes: Mms6, Magnetospirillum magneticum AMB-1, mature form (59 residues), the C-terminal stretch of the printed SUMO-Mms6 construct; numbers count on: the mature protein (truncated form isolated by Arakaki et al.); No cleavage of the tags is described; also called wildtype SUMO-Mms6; Mms6 (His6-SUMO fusion); source: E. coli BL21 (DE3) Star, purified (nickel column, dialysis against EDTA and …)
B2: SUMO-Mms6 EE50AA (natural protein, Magnetospirillum magneticum AMB-1)
chain: GGTIWTGKGLGLGLGLGLGAWGPIILGVVGAGAVYAYMKSRDIESAQSDAAVELRDALA
notes: Mms6, Magnetospirillum magneticum AMB-1, mature form; numbers count on: the mature protein; Same tags and construct as m1; also called double mutant; source: E. coli BL21 (DE3) Star, purified (nickel column, dialysis); not shown: His6, N-terminal, kept; SUMO (yeast), N-terminal, kept
B3: SUMO-Mms6 E44A (natural protein, Magnetospirillum magneticum AMB-1)
chain: GGTIWTGKGLGLGLGLGLGAWGPIILGVVGAGAVYAYMKSRDIASAQSDEEVELRDALA
notes: Mms6, Magnetospirillum magneticum AMB-1, mature form; numbers count on: the mature protein; Same tags and construct as m1; source: E. coli BL21 (DE3) Star, purified (nickel column, dialysis); not shown: His6, N-terminal, kept; SUMO (yeast), N-terminal, kept
B4: SUMO-Mms6 E53A (natural protein, Magnetospirillum magneticum AMB-1)
chain: GGTIWTGKGLGLGLGLGLGAWGPIILGVVGAGAVYAYMKSRDIESAQSDEEVALRDALA
notes: as for B3
B5: SUMO-Mms6 E51A (natural protein, Magnetospirillum magneticum AMB-1)
chain: GGTIWTGKGLGLGLGLGLGAWGPIILGVVGAGAVYAYMKSRDIESAQSDEAVELRDALA
notes: as for B3
B6: SUMO-Mms6 E50A (natural protein, Magnetospirillum magneticum AMB-1)
chain: GGTIWTGKGLGLGLGLGLGAWGPIILGVVGAGAVYAYMKSRDIESAQSDAEVELRDALA
notes: as for B3
B7: SUMO-Mms6 D49A (natural protein, Magnetospirillum magneticum AMB-1)
chain: GGTIWTGKGLGLGLGLGLGAWGPIILGVVGAGAVYAYMKSRDIESAQSAEEVELRDALA
notes: as for B3
B8: SUMO-Mms6 R55A (natural protein, Magnetospirillum magneticum AMB-1)
chain: GGTIWTGKGLGLGLGLGLGAWGPIILGVVGAGAVYAYMKSRDIESAQSDEEVELADALA
notes: as for B3
B9: SUMO-Mms6 D42A (natural protein, Magnetospirillum magneticum AMB-1)
chain: GGTIWTGKGLGLGLGLGLGAWGPIILGVVGAGAVYAYMKSRAIESAQSDEEVELRDALA
notes: Mms6, Magnetospirillum magneticum AMB-1, mature form; numbers count on: the mature protein; Same tags and construct as m1 (pET28SUMOmms6, site directed mutagenesis); source: E. coli BL21 (DE3) Star, purified (nickel column, dialysis); not shown: His6, N-terminal, kept; SUMO (yeast), N-terminal, kept

Tests used:
[1] = biological target: the molecule itself; assay: SEC; gel filtration of purified SUMO-Mms6 on Superdex S200 10/300 in 20 mM Tris pH 7.4; molecular weights extrapolated from Gel Filtration Marker Kit standards
[2] = biological target: the molecule itself; assay: SDS-PAGE; purified proteins on Bio-Rad AnyKd gel, InstantBlue staining; apparent monomer and dimer bands

Protein	stoichiometry N [1]	binding result [2]
B1	2	–
B2	–	binds
B3	–	binds
B4	–	binds
B5	–	binds
B6	–	binds
B7	–	binds
B8	–	binds
B9	–	binds
